This is an account of results in patent US20170037146A1 (GENOR BIOPHARMA, published 2017).

Residue numbers refer to the chain shown, from its start.

This test deals with T1, Human HER2 antigen (Sino Biological Inc., catalog number 10004-H08H) (human, UniProt P04626 23-652).
T1 construct: Bought antigen coated on the ELISA plate
As to the kind of experiment: ELISA on coated human HER2 antigen, anti-human IgG Fc-HRP detection. The protocol:
Human HER2 antigen (purchased from Sino Biological Inc., catalog number: 10004-H08H) was diluted to 1 μg/ml using PBS buffer, and added to an ELISA plate at 100 μl/well to perform coating at 4° C. overnight. The plate was washed with PBST for four times, then 5% BSA (purchased from Amresco, USA, catalog number: 0332-100g, the solution being PBS) was added at 300 μl/well to perform blocking at room temperature for 1 hour. […] Each of the dilutions was added to an ELISA plate at 100 μl/well and incubated at room temperature for 1 hour. The plate was washed with PBST for four times, then HRP-labeled goat anti-human IgG Fc antibody (purchased from CalBiochem Inc., USA, catalog number: AP113A-K) was diluted at 1:10000 with PBS buffer, and added to the ELISA plate at 100 μl/well to perform incubation at room temperature for 1 hour. The plate was washed with PBST for four times, then a solution of 3,3′,5,5′-tetramethylbenzidine substrate (purchased from Tiangen Co., Ltd., catalog number: PA107-01) was added at 100 μl/well to perform incubation at room temperature for 15 minutes for visualization. A stop solution (1 M sulfuric acid) was added at 50 μl/well, and absorbance value was read at 450/630 nm wavelength on an M5 multi-functional ELISA plate (Molecular Devices Inc., USA).
For orientation: An ELISA detects its analyte on a solid surface through an enzyme-linked reagent.

B1: GB235-019 recombinant full-length IgG1 isotype antibody (wild type) (antibody, V domains shown)
VH: EVQLVQSGAEVKKPGAPVKVSCKASGYTFTSYDINWVRQATGQGLEWMGWMNPNSGNTGYAQKFQGRVTMTRNTSISTAYMELSSLRSEDTAVYYCARGYYLSRGDFWGQGTLVTVSS
VL: DIQMTQSPSSVSASVGDRVTITCRASQGISSWLAWYQQKPGKAPKLLIYAASSLQSGVPSRFSGSGSGTDFTLTISSLQPEDFATYYCQQANSFPLTFGGGTKVEIKR
modifications: N-linked glycan at Asn73 (Fab framework region 3)
notes: Full-length IgG1 expressed in FreeStyle 293F cells; Derived from scFv clone WG1-019; also called GB235-019WT; GB235-019 wild-type antibody
Regarding B1, the binding result is listed as “binds”.

B2: GB235-019N73Q mutated antibody (antibody, human IgG1, kappa, V domains shown)
VH: B1 VH with N73Q
VL: B1 VL
notes: full-length IgG1
B2: the binding result is “binds”.

B3: GB235-019N73D mutated antibody (antibody, human IgG1, kappa, V domains shown)
VH: B1 VH with N73D
VL: B1 VL
notes: full-length IgG1
For B3, the binding result was “binds”.

B4: GB235-019S75A mutated antibody (antibody, human IgG1, kappa, V domains shown)
VH: B1 VH with S75A
VL: B1 VL
notes: full-length IgG1; also called GB235-019575A
On to B4, for which the binding result is “binds”.
